The values below come from patent US7238857, “Ethylene-responsive transcription coactivators in plants” (Japan and Science and Technology Agency).

For series [1], the target named is T1, ERF2 (Nicotiana tabacum, UniProt Q40479 Q40479:1-233). The experiment in a line: competition; 10 ng unlabeled mERE did not inhibit ERF2-ERE complex. The following applies: tags: His tag (pET15b, Novagen); GATC 5' overhangs. From the text: The binding activity of ERF2 to ERE was investigated using gel-shift assays. The DNA fragment containing a 53 bp wild-type ethylene-responsive element (ERE) was used as a DNA probe after labeled with a radioactive tracer using (γ^-32P)ATP and T4-polynucleotide kinase (Takara Bio INC., Kyoto, Japan). Multi-copied and linked ERE (SEQ ID NO: 3 and 4) or mERE (SEQ ID NO: 5 and 6) fragments (FIG. 1) were used as wild-type and mutant-type competitors, respectively. mERE (mutant-type) was similar to ERE (wild-type), except that the DNA nucleotide sequence in the GCC box contains base substitutions. The mixture of 1 ng of radio-labeled DNA probe (1,000 to 10,000 cpm) and 10 ng of recombinant ERF without or with 10 ng of a competitor DNA in 10 µl of the binding buffer shown in Table 1 was incubated for 45 minutes at 25° C.
The samples after binding reaction were subjected to 4% polyacrylamide gel electrophoresis (acrylamide:bisacrylamide=39:1, 1 mm in thickness, 13 cm long) containing 0.25×TB buffer (22.5 mM Tris-borate, pH 8.0) at 25° C. for 3 hrs at 100 V. The gel was dried and exposed to Fuji Imaging Plate® (Fuji Photo Film Co. Ltd., Kanagawa, JAPAN; a radiosensitive layer of phosphor crystals on a polyester backing plate). The electrophoresis mobility pattern was visualized using Bio-Image Analyzer (Fuji Photo Film Co. Ltd., Kanagawa, JAPAN). […]

Series [2] has as its target T1, ERF2. Put plainly: in vitro transcription activation of pERE in HeLa nuclear extract with tTBP. The note with it: tags: His tag (pET15b, Novagen); label: 32P 5' end; GATC 5' overhangs. On the procedure:
(§1) Moreover, the in vitro transcription reaction was assayed in the following way. The HeLa nuclear extracts used for the in vitro transcription were prepared as reported previously (Meth. Enzymol. 101:582–598(1983)).
The transcription reaction mixture was incubated for 60 min at 30° C. and 75 µl of the reaction stopping solution (Table 2) was added to stop the reaction. Then, 100 µl of PCIAA (50% phenol, 48% chloroform, 2% isoamilalcohol) was added to the reaction mixture to recover the aqueous phase. After that, 100 µl of CIAA (96% chloroform, 4% isoamilalcohol) was added to the aqueous phase and the aqueous phase was recovered. Then, 10 µl of 3 M sodium acetate and 300 µl of ethyl alcohol were added to the aqueous phase to precipitate nucleic acid. The nucleic acid was dried and was dissolved in 10 µl of urea solution (5M urea, 1 mM EDTA, 0.1% bromophenol blue). The nucleic acid sample was subjected to electrophoresis using 6% polyacrylamide gel (acrylamide:bisacrylamide=19:1, 1 mm of thickness, 12.5 cm long) containing 89 mM Tris-borate (pH 8.3), 2 mM EDTA and 8 M urea at 300 V. When bromophenol blue in the sample had migrated to the lowest edge of the gel, the gel was removed and was soaked in 1 L of water containing 5% methanol and 5% acetic acid and then in 1 L of water containing 5% methanol, each for 20 min. […]

The next series concerns the target ERF3 (Nicotiana tabacum, UniProt Q40477 Q40477:1-225). Put plainly: in vitro transcription activation of pERE in HeLa nuclear extract. The note with it: tags: His tag (pET15b, Novagen); label: 32P 5' end; GATC 5' overhangs. On the procedure:
as §1
(§2) The transcription reaction mixture was incubated for 60 min at 30° C. and 75 µl of the reaction stopping solution (Table 2) was added to stop the reaction. Then, 100 µl of PCIAA (50% phenol, 48% chloroform, 2% isoamilalcohol) was added to the reaction mixture to recover the aqueous phase. After that, 100 µl of CIAA (96% chloroform, 4% isoamilalcohol) was added to the aqueous phase and the aqueous phase was recovered. Then, 10 µl of 3 M sodium acetate and 300 µl of ethyl alcohol were added to the aqueous phase to precipitate nucleic acid. The nucleic acid was dried and was dissolved in 10 µl of urea solution (5M urea, 1 mM EDTA, 0.1% bromophenol blue). The nucleic acid sample was subjected to electrophoresis using 6% polyacrylamide gel (acrylamide:bisacrylamide=19:1, 1 mm of thickness, 12.5 cm long) containing 89 mM Tris-borate (pH 8.3), 2 mM EDTA and 8 M urea at 300 V. When bromophenol blue in the sample had migrated to the lowest edge of the gel, the gel was removed and was soaked in 1 L of water containing 5% methanol and 5% acetic acid and then in 1 L of water containing 5% methanol, each for 20 min. Then, the gel was attached to a filter paper, dried and exposed to Fuji Imaging Plate overnight. RNA was visualized using Bio Image Analyzer.
(§3) As in the case of reference example 2, the inventors examined the activity of transcriptional activation of other ERFs. […] The activity of transcriptional activation of each ERF was as follows; amplification by ERF3, 3 fold; that by ERF4, 3.5 fold; that by ERF1, 4 fold; that by ERF2, 5 fold.

For another series, the target named is ERF1 (Nicotiana tabacum, UniProt Q40476 Q40476:1-236). The description is as above. The following applies: tags: His tag (pET15b, Novagen); label: 32P 5' end; GATC 5' overhangs. On the procedure:
as §1, §2, §3

A further series concerns the target ERF4 (Nicotiana tabacum, UniProt Q40478 Q40478:1-291). The series is described as above. The following applies: tags: His tag (pET15b, Novagen); label: 32P 5' end; GATC 5' overhangs. On the procedure: as §1, §2, §3

T1 sequence (Q40479 whole entry, the tested form may be a part, one chain of several): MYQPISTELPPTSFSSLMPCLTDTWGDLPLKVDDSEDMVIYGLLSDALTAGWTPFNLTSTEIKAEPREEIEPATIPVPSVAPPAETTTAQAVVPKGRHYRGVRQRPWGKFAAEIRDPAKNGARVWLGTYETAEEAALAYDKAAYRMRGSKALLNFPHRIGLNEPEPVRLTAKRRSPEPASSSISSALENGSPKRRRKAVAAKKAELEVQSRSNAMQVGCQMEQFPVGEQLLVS
Sequence of ERF1 (Q40476 whole entry, one chain of several): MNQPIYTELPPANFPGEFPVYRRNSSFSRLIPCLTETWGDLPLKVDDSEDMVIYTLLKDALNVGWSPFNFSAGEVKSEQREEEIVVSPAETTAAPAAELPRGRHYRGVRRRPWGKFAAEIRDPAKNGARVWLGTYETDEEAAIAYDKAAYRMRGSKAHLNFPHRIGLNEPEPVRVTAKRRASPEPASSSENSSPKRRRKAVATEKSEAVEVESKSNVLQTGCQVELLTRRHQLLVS
Sequence of ERF3 (Q40477 whole entry, one chain of several): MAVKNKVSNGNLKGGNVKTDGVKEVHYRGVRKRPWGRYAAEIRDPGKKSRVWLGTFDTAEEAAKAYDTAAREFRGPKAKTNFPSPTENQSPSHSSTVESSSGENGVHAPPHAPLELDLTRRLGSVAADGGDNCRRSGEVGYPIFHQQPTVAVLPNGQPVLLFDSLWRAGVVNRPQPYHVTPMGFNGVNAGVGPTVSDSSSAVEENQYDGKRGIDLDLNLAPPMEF
Sequence of ERF4 (Q40478 whole entry, one chain of several): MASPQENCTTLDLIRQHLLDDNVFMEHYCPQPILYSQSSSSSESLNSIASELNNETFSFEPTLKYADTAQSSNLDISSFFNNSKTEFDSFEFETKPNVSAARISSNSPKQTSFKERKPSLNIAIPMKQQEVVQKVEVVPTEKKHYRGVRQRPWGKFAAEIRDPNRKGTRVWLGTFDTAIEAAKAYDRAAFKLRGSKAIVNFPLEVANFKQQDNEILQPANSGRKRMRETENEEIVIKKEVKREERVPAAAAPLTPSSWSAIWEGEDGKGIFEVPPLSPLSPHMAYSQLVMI

B1: mERE (mutant GCC box) (dsDNA)
DNA 1: GATCTCATAAGATCCTCCACTAAAATAAGACCGATCAAATAAGATCCTCCATG
DNA 2: GATCCATGGAGGATCTTATTTGATCGGTCTTATTTTAGTGGAGGATCTTATGA
Consider B1, for which the binding result in the series with ERF2 [1] is on record as “no binding”.

B2: ERE (2x GCC box) (dsDNA)
DNA 1: GATCTCATAAGAGCCGCCACTAAAATAAGACCGATCAAATAAGAGCCGCCATG
DNA 2: GATCCATGGCGGCTCTTATTTGATCGGTCTTATTTTAGTGGCGGCTCTTATGA
B2: the activity in the series with ERF2 [2] is 5 fold; with ERF3 it was 3 fold; with ERF1, 4 fold; with ERF4, 3.5 fold.
